# Measurements: patent US10081665B2, “Peptides and combination of peptides for use in immunotherapy against various tumors” (immatics biotechnologies GmbH, priority 2015, dated 2018)
# Target: HLA-A*02:01 (Homo sapiens, UniProt P04439, D140Y/D185E/D98H/E176V/E277Q/G131W/G231S/I119V/I121R/I166T/I218V/L300P/L318F/N151K/N90K/P208A/P217A/Q86G/Q94H/R138H/R169H/T345S)
# Assay: MHC binding assay (UV-ligand exchange, beta2m ELISA)
# Conditions: binding to HLA-A*02:01, β2m ELISA
# Description: Candidate peptides for T cell based therapies according to the present invention were further tested for their MHC binding capacity (affinity). The individual peptide-MHC complexes were produced by UV-ligand exchange, where a UV-sensitive peptide is cleaved upon UV-irradiation, and exchanged with the peptide of interest as analyzed. Only peptide candidates that can effectively bind and stabilize the peptide-receptive MHC molecules prevent dissociation of the MHC complexes. To determine the yield of the exchange reaction, an ELISA was performed based on the detection of the light chain (β2m) of stabilized MHC complexes. The assay was performed as generally described in Rodenko et al. (Rodenko et al., 2006).
# 96 well MAXISorp plates (NUNC) were coated over night with 2 ug/ml streptavidin in PBS at room temperature, washed 4× and blocked for 1 h at 37° C. in 2% BSA containing blocking buffer. Refolded HLA-A*02:01/MLA-001 monomers served as standards, covering the range of 15-500 ng/ml. Peptide-MHC monomers of the UV-exchange reaction were diluted 100 fold in blocking buffer. Samples were incubated for 1 h at 37° C., washed four times, incubated with 2 ug/ml HRP conjugated anti-82m for 1 h at 37° C., washed again and detected with TMB solution that is stopped with […]. Absorption was measured at 450 nm. Candidate peptides that show a high exchange yield (preferably higher than 50%, most preferred higher than 75%) are generally preferred for a generation and production of antibodies or fragments thereof, and/or T cell receptors or fragments thereof, as they show sufficient avidity to the MHC molecules and prevent dissociation of the MHC complexes.
row,Substance,"Peptide exchange (MHC class I binding score, peptide exchange yield)"
1,214 (ALFETLIQL; listed as Homo sapiens) [compound 214],+++ (≥50 = +++)
2,184 (ALDSTIAHL; listed as Homo sapiens) [compound 184],++ (≥20% = ++)
3,166 (LLGDSSFFL; listed as Homo sapiens) [compound 166],+++ (≥50 = +++)
4,100 (ALQSFEFRV; listed as Homo sapiens) [compound 100],+++ (≥50 = +++)
5,181 (LLWAPTAQA; listed as Homo sapiens) [compound 181],+++ (≥50 = +++)
6,80 (VLTGQVHEL; listed as Homo sapiens) [compound 80],+++ (≥50 = +++)
7,38 (VLQQESNFL; listed as Homo sapiens) [compound 38],++ (≥20% = ++)
8,64 (SLYAGSNNQV; listed as Homo sapiens) [compound 64],++ (≥20% = ++)
9,223 (ALHPVQFYL; listed as Homo sapiens) [compound 223],+++ (≥50 = +++)
10,221 (IMLNSVEEI; listed as Homo sapiens) [compound 221],++ (≥20% = ++)
11,248 (VLMQDSRLYL; listed as Homo sapiens) [compound 248],+++ (≥50 = +++)
12,268 (SLDKDIVAL; listed as Homo sapiens) [compound 268],++ (≥20% = ++)
13,250 (LMQDSRLYL; listed as Homo sapiens) [compound 250],+++ (≥50 = +++)
14,225 (FLPQPVPLSV; listed as Homo sapiens) [compound 225],+++ (≥50 = +++)
15,251 (LLWGNLPEI; listed as Homo sapiens) [compound 251],+++ (≥50 = +++)
16,241 (KQFEGTVEI; listed as Homo sapiens) [compound 241],+++ (≥50 = +++)
17,161 (NLLDENVCL; listed as Homo sapiens) [compound 161],++++ (≥75% = ++++)
18,258 (QLVQRVASV; listed as Homo sapiens) [compound 258],++ (≥20% = ++)
19,37 (QIVELIEKI; listed as Homo sapiens) [compound 37],++ (≥20% = ++)
20,274 (TLYNPERTITV; listed as Homo sapiens) [compound 274],+++ (≥50 = +++)
21,150 (VLLDMVHSL; listed as Homo sapiens) [compound 150],+++ (≥50 = +++)
22,81 (ILAEEPIYI; listed as Homo sapiens) [compound 81],++ (≥20% = ++)
23,114 (LLFPSDVQTL; listed as Homo sapiens) [compound 114],++ (≥20% = ++)
24,147 (GLLSALENV; listed as Homo sapiens) [compound 147],+++ (≥50 = +++)
25,140 (FLDSQITTV; listed as Homo sapiens) [compound 140],+++ (≥50 = +++)
26,285 (MLLDTVQKV; listed as Homo sapiens) [compound 285],+++ (≥50 = +++)
27,62 (SLVENIHVL; listed as Homo sapiens) [compound 62],+++ (≥50 = +++)
28,235 (SLLNQPKAV; listed as Homo sapiens) [compound 235],++ (≥20% = ++)
